IntAct's records for PubMed 29892012

B1: Late cornified envelope protein 1B (Homo sapiens), Q5T7P3 (parent)
chain: MSCQQNQQQCQPPPKCIPKCPPKCLTPRCPPKCPPKCPPVSSCCSVSSGGCCGSSSGGSCGSSSGGCCSSGGGGCCLSHHRRRRSHCHRPQSSGCCSQPSGGSSCCGGGSGQHSGGCC
partner: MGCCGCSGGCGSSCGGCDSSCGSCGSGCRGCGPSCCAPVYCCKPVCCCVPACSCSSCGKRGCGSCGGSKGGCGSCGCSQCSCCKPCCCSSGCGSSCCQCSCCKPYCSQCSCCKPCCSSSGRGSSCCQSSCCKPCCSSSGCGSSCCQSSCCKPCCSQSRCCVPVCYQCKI
B2: Abl interactor 2 (Homo sapiens), Q9NYB9 (parent)
chain: MAELQMLLEEEIPGGRRALFDSYTNLERVADYCENNYIQSADKQRALEETKAYTTQSLASVAYLINTLANNVLQMLDIQASQLRRMESSINHISQTVDIHKEKVARREIGILTTNKNTSRTHKIIAPANLERPVRYIRKPIDYTILDDIGHGVKWLLRFKVSTQNMKMGGLPRTTPPTQKPPSPPMSGKGTLGRHSPYRTLEPVRPPVVPNDYVPSPTRNMAPSQQSPVRTASVNQRNRTYSSSGSSGGSHPSSRSSSRENSGSGSVGVPIAVPTPSPPSVFPAPAGSAGTPPLPATSASAPAPLVPATVPSSTAPNAAAGGAPNLADGFTSPTPPVVSSTPPTGHPVQFYSMNRPASRHTPPTIGGSLPYRRPPSITSQTSLQNQMNGGPFYSQNPVSDTPPPPPPVEEPVFDESPPPPPPPEDYEEEEAAVVEYSDPYAEEDPPWAPRSYLEKVVAIYDYTKDKEDELSFQEGAIIYVIKKNDDGWYEGVMNGVTGLFPGNYVESIMHYSE
partner: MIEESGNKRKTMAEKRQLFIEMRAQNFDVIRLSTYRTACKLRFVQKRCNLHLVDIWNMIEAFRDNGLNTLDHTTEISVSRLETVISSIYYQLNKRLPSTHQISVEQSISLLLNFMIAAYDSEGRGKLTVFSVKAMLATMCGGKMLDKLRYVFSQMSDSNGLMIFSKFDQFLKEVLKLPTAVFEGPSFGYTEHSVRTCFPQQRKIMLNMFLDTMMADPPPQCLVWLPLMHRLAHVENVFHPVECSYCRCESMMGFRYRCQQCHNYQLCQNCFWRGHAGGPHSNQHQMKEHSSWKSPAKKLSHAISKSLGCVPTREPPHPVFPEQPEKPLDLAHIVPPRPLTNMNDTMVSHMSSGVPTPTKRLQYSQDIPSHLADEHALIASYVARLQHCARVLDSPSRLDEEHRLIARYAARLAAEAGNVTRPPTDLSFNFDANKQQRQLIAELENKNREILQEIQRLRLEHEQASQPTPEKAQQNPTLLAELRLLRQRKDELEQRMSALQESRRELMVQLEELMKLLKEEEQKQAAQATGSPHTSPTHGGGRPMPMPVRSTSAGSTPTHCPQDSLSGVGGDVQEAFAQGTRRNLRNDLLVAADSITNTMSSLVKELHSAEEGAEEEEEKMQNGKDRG
B3: Pre-B-cell leukemia transcription factor-interacting protein 1 (Homo sapiens), Q96AQ6 (parent)
chain: MASCPDSDNSWVLAGSESLPVETLGPASRMDPESERALQAPHSPSKTDGKELAGTMDGEGTLFQTESPQSGSILTEETEVKGTLEGDVCGVEPPGPGDTVVQGDLQETTVVTGLGPDTQDLEGQSPPQSLPSTPKAAWIREEGRCSSSDDDTDVDMEGLRRRRGREAGPPQPMVPLAVENQAGGEGAGGELGISLNMCLLGALVLLGLGVLLFSGGLSESETGPMEEVERQVLPDPEVLEAVGDRQDGLREQLQAPVPPDSVPSLQNMGLLLDKLAKENQDIRLLQAQLQAQKEELQSLMHQPKGLEEENAQLRGALQQGEAFQRALESELQQLRARLQGLEADCVRGPDGVCLSGGRGPQGDKAIREQGPREQEPELSFLKQKEQLEAEAQALRQELERQRRLLGSVQQDLERSLQDASRGDPAHAGLAELGHRLAQKLQGLENWGQDPGVSANASKAWHQKSHFQNSREWSGKEKWWDGQRDRKAEHWKHKKEESGRERKKNWGGQEDREPAGRWKEGRPRVEESGSKKEGKRQGPKEPPRKSGSFHSSGEKQKQPRWREGTKDSHDPLPSWAELLRPKYRAPQGCSGVDECARQEGLTFFGTELAPVRQQELASLLRTYLARLPWAGQLTKELPLSPAFFGEDGIFRHDRLRFRDFVDALEDSLEEVAVQQTGDDDEVDDFEDFIFSHFFGDKALKKRSGKKDKHSQSPRAAGPREGHSHSHHHHHRG
B4: U3 small nucleolar RNA-associated protein 25 homolog (Homo sapiens), Q68CQ4 (parent)
chain: MGKRGSRSQSQLLNTLTKKQKKHLRDFGEEHPFYDRVSRKEAKPQICQLSESSDSSDSESDSESEPQQVSGYHRLLATLKNVSEEEEEDEEEEEEEDSIVDDAEMNDEDGGSDVSVEEEMAAESTESPENVALSADPEGKEDGEEPPGTSQTSPEEFTDAKHESLFSLETNFLEEESGDNSSLKASQDPFLQHVNKELKEKAIQAVATNPKTTHELKWPILGQLFFSSKFQKLETFKPPKDIDLKSLHLQKPLESTWTKTNSQFLSGPQKSSSPFTPLQKELFLIMNSYRDLFYPERTALKNGEEIRHVYCLHVINHILKANAQVLGNNSRRRSQKFGVGDDDDFRDQGLTRPKVLIVVPFREAALRVVQLFISLLEGDSKKKIIVSNKKRFQGEYGSDPEERPPNLKRPEDYEAVFVGNIDDHFRIGVAILQRSIRLYAPFYSSDILIASPLGLRTIIGGEGEKKRDFDFLSSIELLIIDQADIYLMQNWEHVLHLMNHMNLLPLDSHGVDFSRVRMWSLNNWSKYYRQTLLFGALQDAQINSVFNKYCVNMQGQVAVRNVPMTGSISHVLVQLPHVFQRMEAENLASVIDARFNFFVNKILPQYRDAVMSHTLIYIPSYFDFVRLRNYFKKEELNFTHICEYTQKSGVSRARHFFLQGEKQFLLFTERFHFYKRYTIKGIRNLIFYELPTYPHFYSEICNMLRATNRGEEATWTCTVLYSKYDAQRLAAVVGVERAAQMLQSNKNVHLFITGEK
partner: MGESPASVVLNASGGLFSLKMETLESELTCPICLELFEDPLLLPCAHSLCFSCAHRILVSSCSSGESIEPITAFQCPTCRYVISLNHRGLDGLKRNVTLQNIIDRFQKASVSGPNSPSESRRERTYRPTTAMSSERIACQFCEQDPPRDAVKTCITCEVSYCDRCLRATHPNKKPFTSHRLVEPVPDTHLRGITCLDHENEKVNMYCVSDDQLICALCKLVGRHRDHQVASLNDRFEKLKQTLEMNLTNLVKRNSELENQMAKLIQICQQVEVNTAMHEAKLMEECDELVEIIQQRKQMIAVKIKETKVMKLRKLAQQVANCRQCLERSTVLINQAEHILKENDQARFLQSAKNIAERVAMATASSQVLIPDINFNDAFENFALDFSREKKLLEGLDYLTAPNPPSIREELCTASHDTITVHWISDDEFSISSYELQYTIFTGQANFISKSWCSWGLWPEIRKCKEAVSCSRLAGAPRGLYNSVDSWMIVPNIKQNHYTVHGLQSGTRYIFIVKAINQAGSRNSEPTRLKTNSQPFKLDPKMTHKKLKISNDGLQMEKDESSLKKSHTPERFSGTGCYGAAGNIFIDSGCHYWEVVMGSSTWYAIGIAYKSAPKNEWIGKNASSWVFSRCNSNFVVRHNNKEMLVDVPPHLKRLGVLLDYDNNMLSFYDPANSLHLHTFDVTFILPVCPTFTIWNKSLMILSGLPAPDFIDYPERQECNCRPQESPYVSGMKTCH
B5: Late cornified envelope protein 1B (Homo sapiens), Q5T7P3 (parent)
chain: B1 chain
partner: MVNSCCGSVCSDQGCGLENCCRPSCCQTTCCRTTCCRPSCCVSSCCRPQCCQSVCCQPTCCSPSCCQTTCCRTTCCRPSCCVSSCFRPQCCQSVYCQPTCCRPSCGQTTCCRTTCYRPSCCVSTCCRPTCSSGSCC
B6: Galectin-8 (Homo sapiens), O00214 (parent)
chain: MMLSLNNLQNIIYNPVIPFVGTIPDQLDPGTLIVIRGHVPSDADRFQVDLQNGSSMKPRADVAFHFNPRFKRAGCIVCNTLINEKWGREEITYDTPFKREKSFEIVIMVLKDKFQVAVNGKHTLLYGHRIGPEKIDTLGIYGKVNIHSIGFSFSSDLQSTQASSLELTEISRENVPKSGTPQLRLPFAARLNTPMGPGRTVVVKGEVNANAKSFNVDLLAGKSKDIALHLNPRLNIKAFVRNSFLQESWGEEERNITSFPFSPGMYFEMIIYCDVREFKVAVNGVHSLEYKHRFKELSSIDTLEINGDIHLLEVRSW

Variants of: B1
Conditions: with kra59_human KRTAP5-9, P26371

effect of a mutation on the interaction | Variant
disrupting interaction strength | C16Y

Variants of: B2
Conditions: with dtnb_human DTNB

effect of a mutation on the interaction | Variant
with no effect | E202K

Variants of: B2
Conditions: with dtnb_human DTNB
Remark: another data set of the same source

effect of a mutation on the interaction | Variant
with no effect | R373C

Variants of: B3
Conditions: with mdfi_human MDFI

effect of a mutation on the interaction | Variant
with no effect | V238M

Variants of: B4
Conditions: with trim1_human MID2, Q9UJV3

effect of a mutation on the interaction | Variant
with no effect | D399E

Variants of: B5
Conditions: with kra42_human KRTAP4-2, Q9BYR5

effect of a mutation on the interaction | Variant
with no effect | C16Y

Variants of: B6
Conditions: with taxb1_human TAX1BP1, Q86VP1
Sequence of taxb1_human TAX1BP1, Q86VP1 (Q86VP1 whole entry): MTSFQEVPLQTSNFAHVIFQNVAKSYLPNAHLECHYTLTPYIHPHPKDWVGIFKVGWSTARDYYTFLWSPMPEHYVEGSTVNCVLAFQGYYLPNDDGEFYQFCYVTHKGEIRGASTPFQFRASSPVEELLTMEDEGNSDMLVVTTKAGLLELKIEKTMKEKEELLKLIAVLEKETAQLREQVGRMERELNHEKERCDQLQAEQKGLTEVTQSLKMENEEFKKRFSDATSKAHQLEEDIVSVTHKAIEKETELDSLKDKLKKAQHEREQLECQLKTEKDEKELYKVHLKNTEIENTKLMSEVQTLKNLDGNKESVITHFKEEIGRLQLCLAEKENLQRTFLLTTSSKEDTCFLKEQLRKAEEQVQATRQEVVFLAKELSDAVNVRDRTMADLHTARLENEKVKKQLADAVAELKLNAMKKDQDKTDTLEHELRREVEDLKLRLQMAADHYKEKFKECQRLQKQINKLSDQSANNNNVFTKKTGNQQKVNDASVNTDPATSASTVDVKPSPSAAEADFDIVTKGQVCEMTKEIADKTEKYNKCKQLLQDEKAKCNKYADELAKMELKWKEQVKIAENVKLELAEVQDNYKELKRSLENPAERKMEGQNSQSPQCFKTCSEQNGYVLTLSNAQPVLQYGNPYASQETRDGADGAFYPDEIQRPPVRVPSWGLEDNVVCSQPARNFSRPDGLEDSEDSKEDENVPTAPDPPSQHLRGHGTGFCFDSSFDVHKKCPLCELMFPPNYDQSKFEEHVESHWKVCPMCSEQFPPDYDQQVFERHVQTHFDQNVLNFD

effect of a mutation on the interaction | Variant
with no effect | P194T
